Entries after “also recorded” stand apart in the source; their conditions may differ.

The results in this text go back to patent US20140287419A1, “Compositions Having Dicamba Decarboxylase Activity and Methods of Use” (priority 2013, published 2014).

Data set [1] can be described thus: 14C assay with purified protein (14CO2 captured on Ca(OH)2 filter paper). Type of data set: biochemical. As to conditions: [14C]-carboxyl-labeled dicamba.
Data set [2] is described as follows: Detection of 4-chloro-3-methoxy phenol product by LC-MS/MS. It is filed as biochemical. As to conditions: purified protein. On the procedure:
The decarboxylated and chloro hydrolyzed product, 4-chloro-3-methoxy phenol (FIG. 1D), is measured using a LC-MS/MS analytical procedure. […] 10 ul is removed from the reaction mixture and mixed with 90 ul pre-chilled methanol followed by centrifugation at 14,000 rpm for 15 min at 4° C. 10 ul of the supernatant is then transferred into 170 ul ddH2O to achieve 5% methanol solution for injection. 50 ul of the prepared sample is injected into a 4000 Q Trap LC-MS/MS system for sample analysis. LC-MS/MS parameters are: Mobile Phase A, 2 mM ammonium acetate in water; Mobile Phase B, 2 mM ammonium acetate in methanol; Column, Aquasil, 100×2.1 mm, 3 μm, C18 column; Flow Rate, 0.6 ml/min. The MS/MS fragment 157/142 which is common to 4-chloro-3-methoxy phenol, 2-chloro-5-methoxy phenol, and 3-chloro-5-methoxy phenol is monitored at a retention time of 2.88 min.

Data set [3] in a line: Detection of 2,5-DCP product by GC/MS. The following applies: purified protein. It is filed as biochemical. The method, then: The decarboxylated and demethylated product of dicamba, 2,5-dichloro phenol or 2,5-DCP (FIG. 1E) is measured using a GC/MS analytical procedure with either liquid injection after liquid/liquid extraction using toluene as the extraction solvent or gas injection using head space method. The head space sample analysis is carried out on an Agilent GC/MS system with a 6890A GC, a 5973N MSD and a CTC CombiPAL auto-sampler or with a 7890A GC, a 5975C MSD and an Agilent GC Sampler 80 auto-sampler with Phenomenex ZB-MultiResidue-1 column (30 m length, 0.25 mm diameter, 0.25 um film) or equivalent. GC/MS parameters are: GC inlet temperature, 200° C.; Carry gas, helium in constant flow mode (1.2 mL/min); Oven temperature program, 70° C. for 1 min and then ramp to 275° C. at 40° C./min. […] The reaction vial is transferred to a agitator for incubation at 90° C. for 4 min at 500 rpm. With a syringe preheated at 110° C., 1000 uL of head space is injected with sample fill speed at 100 uL/sec. A 2-mm diameter liner is used in sample inlet. The MS data acquisition is done in SIM (selected ion monitoring) mode. The positive ion at M/Z 162 for the molecular ion of 2,-5-DCP is monitored at retention time of 4.06 min. Solvent delay for MS acquisition is set at 3 min. GC/MS parameters for liquid sample analysis are the same as those for head space analysis, except that the volume of liquid injection is 1 uL.

Data set [4] in a line: Dicamba decarboxylation activity of computationally designed protein variants. As to conditions: native protein or designed variant versus parent.
Data set [5] in a line: 14C assay with IPTG-induced recombinant E. coli cells (14CO2 capture from [14C]-carboxyl-labeled dicamba). The following applies: E. coli cell assay, 108 sequences tested.

B1: SEQ ID NO:116: Design variant of SEQ ID NO: 41; new 35 amino acid N-terminal loop (protein)
chain: MAQGKVALEEHFAIPETLQDAAGFVPGDYWKELQHRLLDIQDRRVRLMDEHGIETMILSLNAPAVQAIADSTRANETARRANDFLAEQVAKQPTRFRGFAALPMQDPELAARELERCVKELGFVGALVNGFSQDNRSAVPLYYDMAQYWPFWETVQALDVPFYLHPRNPLPSDARIYDGHAWLLGPTWAFGQETAVHALRLMGSGLFDKYPALKIILGHMGEGLPYSMWRIDHRNAWIKTTPKYPAKRKIVDYFNENFYLTTSGNFRTQTLIDAILEIGADRILFSTDWPFENIDHAADWFENTSISEADRKKIGWGNAQNLFKLNR
modifications: Dicamba decarboxylase variant clone DC.30.007
notes: new 35 amino acid N-terminal loop
Regarding B1, the CO2 product result in data set [1] was “detected”. For the same molecule, in data set [2], the 4-chloro-3-methoxy phenol product entry is on record as “detected”. Further, the “2,5-DCP product” value in data set [3] is “detected”. The “Dicamba Decarboxylase Activity” value in data set [4] is given as “displays an increase in dicamba decarboxylase activity”.

B2: SEQ ID NO:115: Design variant of SEQ ID NO: 1 (protein)
chain: MAQGKVALEEHFAIPDTLTTYTTSGDYEKELKHRLLDIQDTRLKLMDAHGIETMILSLNAPGVQAIPDRRKAIEIARRANDVLAEECAKRPDRFLAFAALPLQDPDAATEELQRCVNDLGFVGALVNGFSQEGDGQTPLYYDLPQYRPFWGEVEKLDVPFYLHPRNPLPQDSRIYDGHPWLLGPTWAFAQETAVHALRLMASGLFDEHPRLNIILGHMGEGLPYMMWRIDHRNAWVKTPPRYPAKRRFMDYFNENFHITTSGNFRTQTLIDAILEIGADRILFSTDWPFENIDHASDWFNATSIAEADRVKIGRTNARRLFKLDGA
modifications: Dicamba decarboxylase variant clone DC.4.161
Regarding B2, the CO2 product entry in data set [1] is given as “detected”. The 4-chloro-3-methoxy phenol product result in data set [2] was “detected”. The “2,5-DCP product” value in data set [3] is given as “detected”. For the same molecule, the “Dicamba Decarboxylase Activity” value in data set [4] is listed as “displays an increase in dicamba decarboxylase activity”.

B3: SEQ ID NO:109: Design variant of SEQ ID NO: 1; designed mutation N235V (protein)
chain: MAQGKVALEEHFAIPETLQDSAGFVPGDYWKELQHRLLDIQDTRLKLMDAHGIETMILSLNAPAVQAIPDRRKAIEIARRANDVLAEECAKRPDRFLAFAALPLQDPDAATEELQRCVNDLGFVGALVNGFSQEGDGQTPLYYDLPQYRPFWGEVEKLDVPFYLHPRNPLPQDSRIYDGHPWLLGPTWAFAQETAVHALRLMASGLFDEHPRLNIILGHMGEGLPYMMWRIDHRVAWVKLPPRYPAKRRFMDYFNENFHITTSGNFRTQTLIDAILEIGADRILFSTDWPFENIDHASDWFNATSIAEADRVKIGRTNARRLFKLDGA
modifications: Dicamba decarboxylase variant clone DC.4.032
notes: designed mutation N235V
As to B3, the CO2 product entry in data set [1] is “detected”. Moreover, the 4-chloro-3-methoxy phenol product entry in data set [2] is given as “detected”. Further, the “2,5-DCP product” value in data set [3] is “detected”. The “Dicamba Decarboxylase Activity” value in data set [4] was “more active than their parent sequence; also recorded: displays an increase in dicamba decarboxylase activity”.

B4: SEQ ID NO:112: Design variant of SEQ ID NO: 1 (protein)
chain: MAQGKVALEEHFAIPETLQDSAGFVPGDYWKELVHRLLDIQDTRLKLMDAHGIETMILSLNAPAVQAIPDRRKAIEIARRANDVLAEECAKRPDRFLAFAALPLQDPDAATEELQRCVNDLGFVGALVNGFSQEGDGQTPLYYDLPQYRPFWGEVEKLDVPFYLHPRNPLPQDSRIYDGHPWLLGPTWAFAQETAVHALRLMASGLFDEHPRLNIILGHMGEGLPYMMWRIDHRVAWVKLPPRYPAKRRFMDYFNENFHITTSGNFRTQTLIDAILEIGADRILFSTDWPFENIDHASDWFNATSIAEADRVKIGRTNARRLFKLDGA
modifications: Dicamba decarboxylase variant clone DC.4.113
As to B4, in data set [1], the CO2 product entry is “detected”. The 4-chloro-3-methoxy phenol product entry in data set [2] is “detected”. The “2,5-DCP product” value in data set [3] is “detected”. Also, in data set [4], the “Dicamba Decarboxylase Activity” value was “displays an increase in dicamba decarboxylase activity”.

B5: SEQ ID NO:111: Design variant of SEQ ID NO: 1 (protein)
chain: MAQGKVALEEHFAIPETLQDSMGFVPGDYWKELMHRLLDIQDTRLKLMDAHGIETMILSLNAPAVQAIPDRRKAIEIARRANDVLAEECAKRPDRFLAFAALPLQDPDAATEELQRCVNDLGFVGALVNGFSQEGDGQTPLYYDLPQYRPFWGEVEKLDVPFYLHPRNPLPQDSRIYDGHPWLLGPTWAFAQETAVHALRLMASGLFDEHPRLNIILGHMGEGLPYMMWRIDHRMAWIKLPPRYPAKRRFMDYFNENFHITTSGNFRTQTLIDAILEIGADRILFSTDWPFENIDHASDWFNATSIAEADRVKIGRTNARRLFKLDGA
modifications: Dicamba decarboxylase variant clone DC.4.112
Take B5: the CO2 product entry in data set [1] was “detected”. Also, the 4-chloro-3-methoxy phenol product result in data set [2] is given as “detected”. The “2,5-DCP product” value in data set [3] is listed as “detected”. Moreover, the “Dicamba Decarboxylase Activity” value in data set [4] is given as “displays an increase in dicamba decarboxylase activity”.

B6: SEQ ID NO:110: Design variant of SEQ ID NO: 1 (protein)
chain: MAQGKVALEEHFAIPETLQDSMGFVPGDYWKELMHRLLDIQDTRLKLMDAHGIETMILSLNAPAVQAIPDRRKAIEIARRANDVLAEECAKRPDRFLAFAALPLQDPDAATEELQRCVNDLGFVGALVNGFSQEGDGQTPLYYDLPQYRPFWGEVEKLDVPFYLHPRNPLPQDSRIYDGHPWLLGPTWAFAQETAVHALRLMASGLFDEHPRLNIILGHMGEGLPYMMWRIDHRMAWVKLPPRYPAKRRFMDYFNENFHITTSGNFRTQTLIDAILEIGADRILFSTDWPFENIDHASDWFNATSIAEADRVKIGRTNARRLFKLDGA
modifications: Dicamba decarboxylase variant clone DC.4.111
As for B6, in data set [1], the CO2 product entry is “detected”. Further, the 4-chloro-3-methoxy phenol product result in data set [2] is listed as “detected”. Besides, in data set [3], the “2,5-DCP product” value is on record as “detected”. Besides, the “Dicamba Decarboxylase Activity” value in data set [4] is recorded as “displays an increase in dicamba decarboxylase activity”.

B7: SEQ ID NO:113: Design variant of SEQ ID NO: 1 (protein)
chain: MAQGKVALEEHFAIPETLQDSAGFVPGDYLKELFHRLLDIQDTRLKLMDAHGIETMILSLNAPAVQAIPDRRKAIEIARRANDVLAEECAKRPDRFLAFAALPLQDPDAATEELQRCVNDLGFVGALVNGFSQEGDGQTPLYYDLPQYRPFWGEVEKLDVPFYLHPRNPLPQDSRIYDGHPWLLGPTWAFAQETAVHALRLMASGLFDEHPRLNIILGHMGEGLPYMMWRIDHRVAWVKLPPRYPAKRRFMDYFNENFHITTSGNFRTQTLIDAILEIGADRILFSTDWPFENIDHASDWFNATSIAEADRVKIGRTNARRLFKLDGA
modifications: Dicamba decarboxylase variant clone DC.4.114
For B7, in data set [1], the CO2 product result is given as “detected”. In addition, in data set [2], the 4-chloro-3-methoxy phenol product result is given as “detected”. Besides, the “2,5-DCP product” value in data set [3] was “detected”. For the same molecule, the “Dicamba Decarboxylase Activity” value in data set [4] is listed as “displays an increase in dicamba decarboxylase activity”.

B8: SEQ ID NO:41: amidohydrolase 2, Polaromonas sp. JS666 (protein, listed as Polaromonas sp.)
chain: MANGKIALEEHFATEETLMDSAGFVPDKDWPELRSRLLDIQDRRVRLMDEHGIETMILSLNAPAVQAIADSTRANETARRANDFLAEQVAKQPTRFRGFAALPMQDPELAARELERCVKELGFVGALVNGFSQDNRSAVPLYYDMAQYWPFWETVQALDVPFYLHPRNPLPSDARIYDGHAWLLGPTWAFGQETAVHALRLMGSGLFDKYPALKIILGHMGEGLPYSMWRIDHRNAWIKTTPKYPAKRKIVDYFNENFYLTTSGNFRTQTLIDAILEIGADRILFSTDWPFENIDHAADWFENTSISEADRKKIGWGNAQNLFKLNR
In the case of B8, the CO2 product entry in data set [1] is reported as “detected”. For the same molecule, the 4-chloro-3-methoxy phenol product result in data set [2] was “detected”. Further, the “2,5-DCP product” value in data set [3] is “detected”. Also, in data set [4], the “Dicamba Decarboxylase Activity” value is listed as “native dicamba decarboxylase activity”. Also, in data set [5], the “decarboxylation activity of dicamba” value is “showed decarboxylation activity of dicamba”.
